# Data: patent US20240325499A1, “FGF21 COMPOUND / GLP-1R AGONIST COMBINATIONS WITH OPTIMIZED ACTIVITY RATIO” (SANOFI, priority 2018, published 2024)
# How the values were obtained:
# human FGFR1c and KLB [1] = biological target: T1, human FGFR1c and KLB (Homo sapiens, UniProt P11362+Q86Z14); test: In-Cell Western FGF21 receptor autophosphorylation (pFGFR ICW) in CHO cells; type: cell-based; conditions: CHO cells overexpressing human FGFR1c and KLB; 5 min stimulus; n = 59
# T1 construct: host or cells: CHO Flp-In cells
# Description: (§1) The cellular in vitro efficacy of mature human FGF21 (SEQ ID NO: 2) or FGF21 variants was measured using a specific and highly sensitive In-Cell Western (ICW) assay. The ICW assay is an immunocytochemical assay usually performed in microplate format. CHO Flp-In cells (Invitrogen, Darmstadt, Germany) stably expressing the human FGFR1c (=FGF receptor 1c isoform) together with human beta-Klotho (KLB) were used for an FGF21 receptor autophosphorylation assay using In-Cell Western (Aguilar H. N. et al. (2010) PLoS ONE 5(4): e9965). In order to determine the receptor autophosphorylation level or downstream activation of the MAP kinase ERK1/2, 2×10^4 cells/well were seeded into 96-well plates and grown for 48 h. Cells were serum starved with serum-free medium Ham's F-12 Nutrient Mix with GlutaMAX (Gibco, Darmstadt, Germany) for 3-4 h. The cells were subsequently treated with increasing concentrations of either mature human FGF21 (SEQ ID NO: 2) for 5 min at 37° C. After incubation, the medium was discarded, and the cells were fixed in 3.7% freshly prepared para-formaldehyde for 20 min. […] Subsequently, cells were washed again with PBS plus 0.1% Tween20, and infrared dye signals were quantified with an Odyssey imager (LICOR, Bad Homburg, Germany). Results were normalized by quantification of DNA with TO-PRO3 dye (Invitrogen, Karlsruhe, Germany). […]
# human FGFR1c and KLB [2] = biological target: T1, human FGFR1c and KLB; test: In-Cell Western ERK1/2 phosphorylation (pERK ICW) in CHO cells; type: cell-based; conditions: CHO cells overexpressing human FGFR1c and KLB; 5 min stimulus; n = 61
# Description: as §1
molecule,measurement,setting,value
"mature human wild-type FGF21, FGF21(His29-Ser209) (protein, listed as Homo sapiens) HPIPDSSPLLQFGGQVRQRYLYTDDAQQTEAHLEIREDGTVGGAADQSPESLLQLKALKPGVIQILGVKTSRFLCQRPDGALYGSLHFDPEACSFRELLLEDGYNVYQSEAHGLPLHLPGNKSPHRDPAPRGPARFLPLPGLPPAPPEPPGILAPQPPDVGSSDPLSMVGPSQGRSPSYAS",EC50,human FGFR1c and KLB [1],4.8 ± 0.23 nM
same,EC50,human FGFR1c and KLB [2],0.18 ± 0.02 nM
